These results are taken from the nanobody polyreactivity screen of Harvey et al. (2022).

The data set in a line: yeast display, Sf9 membrane polyspecificity reagent, FACS + sequencing; frameworks hold sequencing errors. In outline: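 Genes from sorted yeast were amplified by colony PCR, read by MiSeq 2 × 250 sequencing and filtered on CDR length. These cells carried a synthetic nanobody library in Saccharomyces cerevisiae BJ5465 and were sorted by FACS into low and high (top ~1%) gates on anti-HA and streptavidin fluorescence. Polyreactivity is labelled according to the gate of origin.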
For “QVQLVESGGGLVQAGGSLRLSCAASGSTFWYYAMGWYRQAPGKERELVAGITQSGGSTYYADSVKGRFTISRDNEKNTVYLQMNRLKPEDTAVYYCAKDGRVSGDFDYWGQGTQVTVSS”, the “polyreactivity (PSR sort gate)” value is reported as “low polyreactivity”. Regarding “QVQLVESGGGLVQAGGSLRLSCAASGSTFWYYAMGWYRQAPGKEREMVATIRWRGGSTYYADSVKGRFTISRDNAKNTLYLQMNSLKPEDTAVYYCAADTWAYVGYYYGFDYWGQGTQVTVSS”, the “polyreactivity (PSR sort gate)” value is “high polyreactivity”. With “QVQLVESGGGLVQAGGSLRLSCAASGSTFWYYDMGWYRQAPGKERELVAAITSGGRTNYADSVKGRFTISRDNAKNTVYLQMNSLKPEDTAVYYCARGPLSHTALYWRGRYNYWGQGTQVTVSS”, the “polyreactivity (PSR sort gate)” value was “high polyreactivity”.

As to “QVQLVESGGGLVQAGGSLRLSCAASGSTFWYYTMGWYRPAPGKERELVAGITSGGSTYYADSVKGRFTISRDYANNTVYLQMNSLKPEDTAVYYCTFYWYNYWGQGTQVTVSS”, the “polyreactivity (PSR sort gate)” value was “high polyreactivity”. Next, “QVQLVESGGGLVQAGGSLRLSCAASGSTFYANAKGWYRQAPGKERELVAAISSTGGSTYYADSVKGRFTISRDNAKNTVYLQMNSLKPEDTAVYYCAARARWIVAYDLGYWGQGTQVTVSS”: “low polyreactivity”; “QVQLVESGGGLVQAGGSLRLSCAASGSTFYANGMGRYRQAPGKERELDAAISWSGGSTYYADSVKGRFTISRDNAKNTVYLQMNSLKPEDTAVYYCAAAYRSFINGRWYDYWGQGTQVTVSS”: “low polyreactivity”. Next, “QVQLVESGGGLVQAGGSLRLSCAASGSTFYAYAMGSYRQSPGKERELVAVITSGGTTKYADSVKGRFTISRDNAKNTVYLQLNSLKPEDTAVYYCNVAGRDYAVRWGSFVFWGQGTQVTVSS”: “low polyreactivity”. For “QVQLVESGGGLVQAGGSLRLSCAASGSTFYAYTMGWYRKAPGKERELVAGISRRGGTTYYADSVKGRFTISRDNAKNTVYLQMNSLKPEDTAVYYCAADKTKPQASEGYYAYYYWGQGTQVTVSS”, the “polyreactivity (PSR sort gate)” value is listed as “low polyreactivity”. With “QVQLVESGGGLVQAGGSLRLSCAASGSTFYDYAMGWYRQAPGKERELVAAMSSSGARTYYADSVKGRFTISRDNAKNSVYLQMNSLKPEDTAVYYCGAKPHTRTTCPSGYWGQATQVTVSS”, the “polyreactivity (PSR sort gate)” value is “high polyreactivity”. In the case of “QVQLVESGGGLVQAGGSLRLSCAASGSTFYDYAMGWYRQAPGKERELVAGIRNGGSTNYADSVKGRFTISRDNAKNTVYLQMNSLIPEDTAVYYCAAPRWDGFYSYYRVVWGIFDYWGQGTQVTVSS” it was “low polyreactivity”; in that of “QVQLVESGGGLVQAGGSLRLSCAASGSTFYDYAMGWYRQAPGKERELVASIDSGDSTNYADSVKGRFTISRDNAKNTVYLQMNSLKPEDTAVYYCAARVYSVADYYYWGQGTQVTVSS”, “low polyreactivity”.

Take “QVQLVESGGGLVQAGGSLRLSCAASGSTFYDYVMGWYRQAPGKERELFAAISRTGASTYYADSVKGRFTISRDNAKNTVYLQMNSLKPVDTAVYYCAADSDTVRYYYWGQGTQVTVSS”: the “polyreactivity (PSR sort gate)” value is “high polyreactivity”.

Consider “QVQLVESGGGLVQAGGSLRLSCAASGSTFYENAMVWSRQAPGKDRELVAAISRSTGRTYYADSVKGRFTISRDNAKNTVYLQMNSLKPEDTAVYYCAARVYGRMYFWGQGTQVTVSS”, for which the “polyreactivity (PSR sort gate)” value was “high polyreactivity”. As for “QVQLVESGGGLVQAGGSLRLSCAASGSTFYFYAMGWYRQAPGKERELVAAITYSGDRTRYADSVKGRFTISRDNAKNTVYLQMNSLKPEDTAVYYCAARYVGARNAYRMGYWGQGTQVTVSS”, the “polyreactivity (PSR sort gate)” value is reported as “high polyreactivity”. Turning to “QVQLVESGGGLVQAGGSLRLSCAASGSTFYFYARGWYRQAPGKERELVAVISSGGTTNYADSVKGRFTISRDNAKNTVYLQMNSLKPEDTAVYYCNAEPPRGYTVSSGGEMDYWGQGTQVTVSS”, the “polyreactivity (PSR sort gate)” value was “low polyreactivity”.

“QVQLVESGGGLVQAGGSLRLSCAASGSTFYGNAMGWYRQATGKERELVAAIRWRGGRTYYADSVKGRFTISRDNAKNTVYLQMNSLKPEDTAVYYCNALPGVSHTQYDRVGYWGQGTQVTVSS”: the “polyreactivity (PSR sort gate)” value is listed as “high polyreactivity”.

With “QVQLVESGGGLVQAGGSLRLSCAASGSTFYGNMGWYRQAPGKERALVAAITYRGTNTYYADSVKGRFTISRDNAKNTVYLQMNSLKPEDTAVYYCAAEYDVYQGRGRYYGYDYWGQGTQVTVSS”, the “polyreactivity (PSR sort gate)” value is reported as “high polyreactivity”.

“QVQLVESGGGLVQAGGSLRLSCAASGSTFYGYAMGGNRQAPGKERELVAAMTWGGASTYYADSVKGRFTIARDNAKNTVYLQMNSLKPEDTAVYYCATVGWGYQPYPFGMDYWGQGTQVTVSS”: the “polyreactivity (PSR sort gate)” value is given as “low polyreactivity”.

Regarding “QVQLVESGGGLVQAGGSLRLSCAASGSTFYGYAMGWNRQAPGKERELVADIDSIAGSTYYADSVKGRFTISRDNAKNTVYLQMNSLKPEDTAVYYCAARRFDTALVLYDYWGQGTQVTVSS”, the “polyreactivity (PSR sort gate)” value was “low polyreactivity”. Next, “QVQLVESGGGLVQAGGSLRLSCAASGSTFYGYAMGWYRQAPGKERELVAAIRSGGRTYYADSVKGRFTISRDNAKNTVYLQMNSLKPEDTAVYYCNARSFNYRTFGGKMGYWGQGTQVTVSS”: “high polyreactivity”; “QVQLVESGGGLVQAGGSLRLSCAASGSTFYGYGLGWYRPAPGKERELFAAITGSGDTTYYADSVKGRFTISRDNAKNTVYLQMNSLKPEDTAVYYCNARWHAEYDYWGQGTQVTVSS”: “low polyreactivity”; “QVQLVESGGGLVQAGGSLRLSCAASGSTFYGYTMGWYRQAPGKERELVAVITSGGSTYYADSVKGRFTISRDNAKNTVYLQMNSLKPEDTAVYYCAKRYGYPAYGRPWRIGRTYDYWGQGTQVTVSS”: “low polyreactivity”. Turning to “QVQLVESGGGLVQAGGSLRLSCAASGSTFYHNAMGWYRQAPGKERELVAAMTWSGSRTYYADSVKGRFTISRDNAKNTVYLQMNSLKPEDTAVYYCAARDYWGQGTQVTVSS”, the “polyreactivity (PSR sort gate)” value is listed as “high polyreactivity”.

“QVQLVESGGGLVQAGGSLRLSCAASGSTFYHYAMGWYRQAPGKERELVAAISTSGGRTYDADSVKGRFTISRDNAKNNVYLQMNSLKPEDTAVYYCAARPGSWYPSVPSYNYWGQGTQVTVSS”: the “polyreactivity (PSR sort gate)” value is reported as “low polyreactivity”. Take “QVQLVESGGGLVQAGGSLRLSCAASGSTFYIHAMGWNRQAPGKERELVAAISATGTRTYYADSVKGRFTISRDNAKNTFYLQMNSLKPEDTAVYYWNAVYWYWWVITYVGPGLGYWGQVTQVTVSS”: the “polyreactivity (PSR sort gate)” value is given as “high polyreactivity”. For “QVQLVESGGGLVQAGGSLRLSCAASGSTFYIYAIGLYRQAPGKERELVAAINWRTGSTYYADSVMGRFTISRDNAKNTVYLQMNSLKPEDTAVYYWNAYTQHWSYWGQGTQVTVSS”, the “polyreactivity (PSR sort gate)” value is “high polyreactivity”. As to “QVQLVESGGGLVQAGGSLRLSCAASGSTFYIYAMGAYRPAPGKERELVARISGSGGSTYYADSVKGRFTISRDNAKNTGYLQMNSLKPEDTAVYYCAADDIYKYYQYYAFPYYRYVYWGHGTQVTVSS”, the “polyreactivity (PSR sort gate)” value is given as “low polyreactivity”. In the case of “QVQLVESGGGLVQAGGSLRLSCAASGSTFYIYAMGWYRQAPGKEREFVAAISRTGGSTYYADSVKGRFTISRDNAKNTVYLQMNSLKPEDTAVYYCAAEYKGFRGRYDYWGQGTQVTVSS” it was “high polyreactivity”. For “QVQLVESGGGLVQAGGSLRLSCAASGSTFYIYAMGWYRQAPGKERELVADITWSGGSTYYADSVKGRFTISRDNAKNTVYLQMNSLKPEDTAVYYCATDSWFGLEYWGQCTQVTVSS”, the “polyreactivity (PSR sort gate)” value is given as “high polyreactivity”.

For “QVQLVESGGGLVQAGGSLRLSCAASGSTFYIYAMGWYRQAPGKERELVARISGSGGSTYYADSVKGRFTISRDNAKNTVYLQMNSLKPEDTAVYYCAADDIYKYYQYYAFPYYRYDYWGQGSQVTVSS”, the “polyreactivity (PSR sort gate)” value is given as “low polyreactivity”. As for “QVQLVESGGGLVQAGGSLRLSCAASGSTFYIYAMGWYRQAPGKERELVARISGSGGSTYYSDSVKGRFTISRDNSKNTVYLQMNSLKPEVTAVYYCAADDIYKYYQYYAFPYYRYDYWGQGTQVTVSS”, the “polyreactivity (PSR sort gate)” value is reported as “low polyreactivity”. For “QVQLVESGGGLVQAGGSLRLSCAASGSTFYIYAMGWYRQAPGKERELVATITRAGTTNYADSVKGRFTISRDNAMNTVYLQMNSLKPEETAVYYCAKRKFRWPYQGSYSYIPFGYCGQGTQVTVSS”, the “polyreactivity (PSR sort gate)” value is “high polyreactivity”. In the case of “QVQLVESGGGLVQAGGSLRLSCAASGSTFYKNAMGWYRQAPGKERELVAAINQSGTRTYYADSVKGRFTISRDNAKNTVYLQMNSLKPEDTAVYYCAAGRGPYYRSRTPLYYWGQGTQVTVSS”, the “polyreactivity (PSR sort gate)” value was “high polyreactivity”. Consider “QVQLVESGGGLVQAGGSLRLSCAASGSTFYKNAMGWYRQAPGKERELVAGISRRGGRTYYADSVKGRFTISRDNAKNTVYLQMNSLKPEDTAVYYCNTGHEEDEYDYWGQGTQVTVSS”, for which the “polyreactivity (PSR sort gate)” value is “low polyreactivity”.

As for “QVQLVESGGGLVQAGGSLRLSCAASGSTFYKYAMGWYRQATGKERELVASTYADSVKGRFTISRDNAKNTVYLQMNSLKPEDTAVYYCAKDTASGPYDYWGQGTQVTVSS”, the “polyreactivity (PSR sort gate)” value is reported as “low polyreactivity”. Consider “QVQLVESGGGLVQAGGSLRLSCAASGSTFYKYGMGWYRPAPGKERELVAAISGSGDSTYYADSVKGRFTISRDNAKNTVYLQMNSLKPEDTAVYYCNAGPWWYLHEYDYWGQGTQVTVSS”, for which the “polyreactivity (PSR sort gate)” value was “low polyreactivity”. Take “QVQLVESGGGLVQAGGSLRLSCAASGSTFYLNAMGWYRKAHGKERELVAPINGSGGSTYADSVKGRFTISRDNAKNTVYLQLHSLKPEDTAVYYCAADGTGYPGDSYPGMDYDYWGQVTQVTVSS”: the “polyreactivity (PSR sort gate)” value was “low polyreactivity”. Next, “QVQLVESGGGLVQAGGSLRLSCAASGSTFYLNAMGWYRQAPGKERELVAAINGSGGSTYADSVKGRFTISRDNAKNTVYLQMKSLIQEDTAVYYCAADGSGYPGYSYPGKDYDDWGQGTQVNVSS”: “low polyreactivity”; “QVQLVESGGGLVQAGGSLRLSCAASGSTFYLNAMGWYRQAPGKERELVAAISRRGGSTYYADSVKGRFTISRDNAKNTVYLEMNSLKPDDTAVYYCNRARVYGYYAPFDYWGQGTQVTVSS”: “high polyreactivity”; “QVQLVESGGGLVQAGGSLRLSCAASGSTFYLNAMGWYRQAPGKERELVAAISSGGRTYYADSVKGRFTISRDNAKNTVYLQMNSLKPEDTAVYYCNAVRYLRGAYNYWGQGTQVTVSS”: “high polyreactivity”.
